Measurements: IntAct's records for PubMed 19412162

B1: F-box only protein 31 (Homo sapiens), Q5XUX0 (parent)
chain: MAVCARLCGVGPSRGCRRRQQRRGPAETAAADSEPDTDPEEERIEASAGVGGGLCAGPSPPPPRCSLLELPPELLVEIFASLPGTDLPSLAQVCTKFRRILHTDTIWRRRCREEYGVCENLRKLEITGVSCRDVYAKLLHRYRHILGLWQPDIGPYGGLLNVVVDGLFIIGWMYLPPHDPHVDDPMRFKPLFRIHLMERKAATVECMYGHKGPHHGHIQIVKKDEFSTKCNQTDHHRMSGGRQEEFRTWLREEWGRTLEDIFHEHMQELILMKFIYTSQYDNCLTYRRIYLPPSRPDDLIKPGLFKGTYGSHGLEIVMLSFHGRRARGTKITGDPNIPAGQQTVEIDLRHRIQLPDLENQRNFNELSRIVLEVRERVRQEQQEGGHEAGEGRGRQGPRESQPSPAQPRAEAPSKGPDGTPGEDGGEPGDAVAAAEQPAQCGQGQPFVLPVGVSSRNEDYPRTCRMCFYGTGLIAGHGFTSPERTPGVFILFDEDRFGFVWLELKSFSLYSRVQATFRNADAPSPQAFDEMLKNIQSLTS

Variants of: B1
Details: with atm_human ATM

Row | Variant | effect of a mutation on the interaction
1 | MAVCARLCGVGPSRGCRRRQQRRGPAETAAADSEPDTDPEEERIEASAGVGGGLCAGPSPPPPRCSLLELPPELLVEIFASLPGTDLPSLAQVCTKFRRILHTDTIWRRRCREEYGVCENLRKLEITGVSCRDVYAKLLHRYRHILGLWQPDIGPYGGLLNVVVDGLFIIGWMYLPPHDPHVDDPMRFKPLFRIHLMERKAATVECMYGHKGPHHGHIQIVKKDEFSTKCNQTDHHRMSGGRQEEFRTWLREEWGRTLEDIFHEHMQELILMKFIYTSQYDNCLTYRRIYLPPSRPDDLIKPGLFKGTYGSHGLEIVMLSFHGRRARGTKITGDPNIPAGQQTVEIDLRHRIQLPDLENQRNFNELSRIVLEVRERVRQEQQEGGHEAGEGRGRQGPREAQPSPAQPRAEAPSKGPDGTPGEDGGEPGDAVAAAEQPAQCGQGQPFVLPVGVSSRNEDYPRTCRMCFYGTGLIAGHGFTSPERTPGVFILFDEDRFGFVWLELKSFSLYSRVQATFRNADAPSPQAFDEMLKNIQSLTS [S400A] | disrupting interaction
2 | MAVCARLCGVGPSRGCRRRQQRRGPAETAAADSEPDTDPEEERIEASAGVGGGLCAGPSPPPPRCSLLELPPELLVEIFASLPGTDLPSLAQVCTKFRRILHTDTIWRRRCREEYGVCENLRKLEITGVSCRDVYAKLLHRYRHILGLWQPDIGPYGGLLNVVVDGLFIIGWMYLPPHDPHVDDPMRFKPLFRIHLMERKAATVECMYGHKGPHHGHIQIVKKDEFSTKCNQTDHHRMSGGRQEEFRTWLREEWGRTLEDIFHEHMQELILMKFIYTAQYDNCLTYRRIYLPPSRPDDLIKPGLFKGTYGSHGLEIVMLSFHGRRARGTKITGDPNIPAGQQTVEIDLRHRIQLPDLENQRNFNELSRIVLEVRERVRQEQQEGGHEAGEGRGRQGPRESQPSPAQPRAEAPSKGPDGTPGEDGGEPGDAVAAAEQPAQCGQGQPFVLPVGVSSRNEDYPRTCRMCFYGTGLIAGHGFTSPERTPGVFILFDEDRFGFVWLELKSFSLYSRVQATFRNADAPSPQAFDEMLKNIQSLTS [S278A] | disrupting interaction
